From IntAct's records for PubMed 29039417 come the findings set out here.

Sequences and labels used below:
B1: Protein PTHB1 (Homo sapiens), Q3SYG4 (parent)
chain: MSLFKARDWWSTILGDKEEFDQGCLCLANVDNSGNGQDKIIVGSFMGYLRIFSPHPAKTGDGAQAEDLLLEVDLRDPVLQVEVGKFVSGTEMLHLAVLHSRKLCVYSVSGTLGNVEHGNQCQMKLMYEHNLQRTACNMTYGSFGGVKGRDLICIQSMDGMLMVFEQESYAFGRFLPGFLLPGPLAYSSRTDSFLTVSSCQQVESYKYQVLAFATDADKRQETEQQKLGSGKRLVVDWTLNIGEQALDICIVSFNQSASSVFVLGERNFFCLKDNGQIRFMKKLDWSPSCFLPYCSVSEGTINTLIGNHNNMLHIYQDVTLKWATQLPHIPVAVRVGCLHDLKGVIVTLSDDGHLQCSYLGTDPSLFQAPNVQSRELNYDELDVEMKELQKIIKDVNKSQGVWPMTEREDDLNVSVVVSPNFDSVSQATDVEVGTDLVPSVTVKVTLQNRVILQKAKLSVYVQPPLELTCDQFTFEFMTPDLTRTVSFSVYLKRSYTPSELEGNAVVSYSRPTDRNPDGIPRVIQCKFRLPLKLICLPGQPSKTASHKITIDTNKSPVSLLSLFPGFASQSDDDQVNVMGFHFLGGARITVLASKTSQRYRIQSEQFEDLWLITNELILRLQEYFEKQGVKDFACSFSGSIPLQEYFELIDHHFELRINGEKLEELLSERAVQFRAIQRRLLARFKDKTPAPLQHLDTLLDGTYKQVIALADAVEENQGNLFQSFTRLKSATHLVILLIALWQKLSADQVAILEAAFLPLQEDTQELGWEETVDAAISHLLKTCLSKSSKEQALNLNSQLNIPKDTSQLKKHITLLCDRLSKGGRLCLSTDAAAPQTMVMPGGCTTIPESDLEERSVEQDSTELFTNHRHLTAETPRPEVSPLQGVSE
partner: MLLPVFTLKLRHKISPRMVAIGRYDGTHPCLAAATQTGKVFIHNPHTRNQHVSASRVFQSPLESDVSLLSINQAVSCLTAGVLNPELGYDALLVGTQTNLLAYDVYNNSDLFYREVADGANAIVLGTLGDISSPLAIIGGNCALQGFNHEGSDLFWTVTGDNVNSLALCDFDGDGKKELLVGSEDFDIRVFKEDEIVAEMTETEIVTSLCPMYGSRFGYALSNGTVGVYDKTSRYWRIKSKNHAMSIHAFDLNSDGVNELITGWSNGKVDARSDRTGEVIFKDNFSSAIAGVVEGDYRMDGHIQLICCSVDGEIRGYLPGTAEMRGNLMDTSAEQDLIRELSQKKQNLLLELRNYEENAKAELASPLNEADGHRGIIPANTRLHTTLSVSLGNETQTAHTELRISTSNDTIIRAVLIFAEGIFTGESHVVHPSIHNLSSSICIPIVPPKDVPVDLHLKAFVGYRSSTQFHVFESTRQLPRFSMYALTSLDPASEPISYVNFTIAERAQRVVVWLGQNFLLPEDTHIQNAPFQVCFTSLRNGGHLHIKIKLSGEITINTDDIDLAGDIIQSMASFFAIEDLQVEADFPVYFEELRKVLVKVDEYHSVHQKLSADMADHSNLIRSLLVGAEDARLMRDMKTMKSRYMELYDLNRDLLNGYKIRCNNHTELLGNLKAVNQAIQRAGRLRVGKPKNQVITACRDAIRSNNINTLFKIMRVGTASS

Variants of B1 are the subject of this experiment. As to conditions: with bbs2_human BBS2, Q9BXC9.
Take L851A: the “effect of a mutation on the interaction” value was “with no effect”.

As to L851E, the “effect of a mutation on the interaction” value is given as “with no effect”.

For the variant L851K, the “effect of a mutation on the interaction” value is reported as “with no effect”.

As to D830K, the “effect of a mutation on the interaction” value is “with no effect”.

D830E: the “effect of a mutation on the interaction” value is “with no effect”.

For the variant D830A, the “effect of a mutation on the interaction” value was “with no effect”.

On to P875E, for which the “effect of a mutation on the interaction” value is “with no effect”.

Turning to P875K, the “effect of a mutation on the interaction” value is given as “with no effect”.

Take P875A: the “effect of a mutation on the interaction” value is “with no effect”.

Regarding R876E, the “effect of a mutation on the interaction” value is listed as “with no effect”.

On to R876A, for which the “effect of a mutation on the interaction” value is “with no effect”.

With R876K, the “effect of a mutation on the interaction” value was “with no effect”.

For the variant R868E, the “effect of a mutation on the interaction” value is “with no effect”.

In the case of R868A, the “effect of a mutation on the interaction” value is on record as “with no effect”.

In the case of R868K, the “effect of a mutation on the interaction” value was “with no effect”.

For the variant L863A, the “effect of a mutation on the interaction” value is “with no effect”.

In the case of L863K, the “effect of a mutation on the interaction” value is listed as “with no effect”.

On to L863E, for which the “effect of a mutation on the interaction” value was “with no effect”.

As to E878K, the “effect of a mutation on the interaction” value was “with no effect”.

On to E878A, for which the “effect of a mutation on the interaction” value is “with no effect”.

Turning to H869K, the “effect of a mutation on the interaction” value is reported as “with no effect”.

For the variant H869A, the “effect of a mutation on the interaction” value was “with no effect”.

For H869E, the “effect of a mutation on the interaction” value is recorded as “with no effect”.

With M839E, the “effect of a mutation on the interaction” value is “with no effect”.

For M839K, the “effect of a mutation on the interaction” value was “disrupting interaction strength”.

For the variant M839A, the “effect of a mutation on the interaction” value is given as “with no effect”.

As for Q858E, the “effect of a mutation on the interaction” value was “with no effect”.

As to Q858A, the “effect of a mutation on the interaction” value was “with no effect”.

Turning to Q858K, the “effect of a mutation on the interaction” value is reported as “with no effect”.

With G823E, the “effect of a mutation on the interaction” value is “with no effect”.

Regarding G823A, the “effect of a mutation on the interaction” value is reported as “with no effect”.

Turning to G823K, the “effect of a mutation on the interaction” value is listed as “with no effect”.

In the case of R824K, the “effect of a mutation on the interaction” value was “with no effect”.

As to R824E, the “effect of a mutation on the interaction” value is “with no effect”.

R824W: the “effect of a mutation on the interaction” value was “disrupting interaction strength”.

In the case of R824A, the “effect of a mutation on the interaction” value was “with no effect”.

As to T829E, the “effect of a mutation on the interaction” value is on record as “with no effect”.

T829K: the “effect of a mutation on the interaction” value was “with no effect”.

In the case of T829A, the “effect of a mutation on the interaction” value is on record as “with no effect”.

As for A831K, the “effect of a mutation on the interaction” value is “with no effect”.

On to A831E, for which the “effect of a mutation on the interaction” value is recorded as “with no effect”.

As to I846E, the “effect of a mutation on the interaction” value is reported as “with no effect”.

Consider I846A, for which the “effect of a mutation on the interaction” value is reported as “with no effect”.

For I846K, the “effect of a mutation on the interaction” value is listed as “with no effect”.

As to E853K, the “effect of a mutation on the interaction” value was “with no effect”.

With E853A, the “effect of a mutation on the interaction” value is listed as “with no effect”.

As to T844K, the “effect of a mutation on the interaction” value is reported as “with no effect”.

T844A: the “effect of a mutation on the interaction” value was “with no effect”.

In the case of T844E, the “effect of a mutation on the interaction” value is “with no effect”.

For the variant V838E, the “effect of a mutation on the interaction” value was “with no effect”.

Take V838A: the “effect of a mutation on the interaction” value was “disrupting interaction strength”.

As for V838K, the “effect of a mutation on the interaction” value was “with no effect”.

Turning to L882E, the “effect of a mutation on the interaction” value was “with no effect”.

Take L882K: the “effect of a mutation on the interaction” value is “with no effect”.

For the variant L882A, the “effect of a mutation on the interaction” value was “with no effect”.

S828E: the “effect of a mutation on the interaction” value is reported as “with no effect”.

For S828K, the “effect of a mutation on the interaction” value is given as “with no effect”.

With S828A, the “effect of a mutation on the interaction” value is recorded as “with no effect”.

Consider V885E, for which the “effect of a mutation on the interaction” value is recorded as “with no effect”.

Regarding V885A, the “effect of a mutation on the interaction” value was “with no effect”.

As to V885K, the “effect of a mutation on the interaction” value was “with no effect”.

Take S880A: the “effect of a mutation on the interaction” value was “with no effect”.

As to S880K, the “effect of a mutation on the interaction” value was “with no effect”.

Turning to S880E, the “effect of a mutation on the interaction” value was “with no effect”.

On to S855E, for which the “effect of a mutation on the interaction” value is listed as “with no effect”.

S855A: the “effect of a mutation on the interaction” value is recorded as “with no effect”.

As for S855K, the “effect of a mutation on the interaction” value is on record as “with no effect”.

Turning to E852A, the “effect of a mutation on the interaction” value was “with no effect”.

Regarding E852K, the “effect of a mutation on the interaction” value is given as “with no effect”.

As to R854K, the “effect of a mutation on the interaction” value is “with no effect”.

As for R854E, the “effect of a mutation on the interaction” value is “with no effect”.

Turning to R854A, the “effect of a mutation on the interaction” value is reported as “with no effect”.

As for L825A, the “effect of a mutation on the interaction” value was “with no effect”.

With L825E, the “effect of a mutation on the interaction” value is “with no effect”.

Regarding L825K, the “effect of a mutation on the interaction” value is given as “with no effect”.

Regarding S860K, the “effect of a mutation on the interaction” value is on record as “with no effect”.

In the case of S860E, the “effect of a mutation on the interaction” value was “with no effect”.

S860A: the “effect of a mutation on the interaction” value is given as “with no effect”.

Consider V856A, for which the “effect of a mutation on the interaction” value was “with no effect”.

With V856K, the “effect of a mutation on the interaction” value is “with no effect”.

On to V856E, for which the “effect of a mutation on the interaction” value was “with no effect”.

With P840A, the “effect of a mutation on the interaction” value is on record as “disrupting interaction strength”.

P840E: the “effect of a mutation on the interaction” value was “with no effect”.

For P840K, the “effect of a mutation on the interaction” value is “with no effect”.

In the case of A832E, the “effect of a mutation on the interaction” value was “with no effect”.

For A832K, the “effect of a mutation on the interaction” value was “with no effect”.

In the case of A833E, the “effect of a mutation on the interaction” value is reported as “with no effect”.

Turning to A833S, the “effect of a mutation on the interaction” value was “disrupting interaction strength”.

For A833K, the “effect of a mutation on the interaction” value is given as “with no effect”.

E848K: the “effect of a mutation on the interaction” value was “with no effect”.

As to E848A, the “effect of a mutation on the interaction” value is “with no effect”.
